In publication PMC9088798, “An Approach to Derive Functional Peptide Inhibitors of Transcription Factor Activity” (JACS Au, 2022):

What was measured:
cJun bZIP domain [1] = molecular target: cJun bZIP domain (UniProt P05412); experiment: circular dichroism thermal denaturation; loss of CD signal at 222 nm with temperature; total peptide 10 μM, equimolar components
cJun bZIP domain [2] = molecular target: cJun bZIP domain (UniProt P05412)
cJun bZIP domain [3] = molecular target: cJun bZIP domain (UniProt P05412); remark: listed apart in the source
cJun bZIP domain [4] = molecular target: cJun bZIP domain (UniProt P05412); experiment: circular dichroism spectra; CD spectra at 20 °C; heterodimeric sample compared with the average of the component spectra; total peptide 10 μM, equimolar components
cJun bZIP domain [5] = molecular target: cJun bZIP domain (UniProt P05412); experiment: ITC; antagonist peptide injected into cJun; single-site binding model
cJun bZIP domain [6] = molecular target: cJun bZIP domain (UniProt P05412); remark: listed apart in the source

Sequence of cJun bZIP domain (P05412 252-315): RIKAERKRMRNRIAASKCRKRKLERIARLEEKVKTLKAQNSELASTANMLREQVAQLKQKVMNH

| Tm of the heterodimer (cJun bZIP domain [1]) | ΔTm of the heterodimer against the average of the component denaturation profiles (cJun bZIP domain [1]) | IC50 of restoration of the free TRE DNA band in EMSA (cJun bZIP 20 μM, TRE DNA 2 μM); blocks cJun binding to TRE DNA (cJun bZIP domain [2]) | TBS assay in E. coli: colony numbers relative to TRE-mDHFR only (removal of the cJun transcriptional block) (cJun bZIP domain [3]) | increase in α-helical content over the average of the component spectra (cJun bZIP domain [4]) | Kd (cJun bZIP domain [5]) | dH (cJun bZIP domain [5]) | stoichiometry N (cJun bZIP domain [5]) | IC50 of reversal of the TRE DNA CD peak shift at ~281 nm (cJun 20 μM, TRE DNA 5 μM); blocks cJun binding to TRE DNA (cJun bZIP domain [6]) | IC50 of reversal of the TRE DNA CD peak shift at ~281 nm; blocks cJun binding to TRE DNA (cJun bZIP domain [6]) | Substance |
| --- | --- | --- | --- | --- | --- | --- | --- | --- | --- | --- |
| 69.9 °C | 27.5 °C | 12.1 µM | 60% | 39% | 0.0883 µM | -36.5 kcal/mol | 1.04 | 16 µM | – | A-FosW (designed binder) |
| 54 °C | – | – | – | – | – | – | – | – | 120 µM | FosW (designed binder) |
